From paper PMC12305717

Target: MlucV reporter (mTFP1 - mutated firefly luciferase - Venus), urea-pre-unfolded / misfolding (firefly)

Ssa1 (yeast cytosolic Hsp70), sequence (P10591 whole entry): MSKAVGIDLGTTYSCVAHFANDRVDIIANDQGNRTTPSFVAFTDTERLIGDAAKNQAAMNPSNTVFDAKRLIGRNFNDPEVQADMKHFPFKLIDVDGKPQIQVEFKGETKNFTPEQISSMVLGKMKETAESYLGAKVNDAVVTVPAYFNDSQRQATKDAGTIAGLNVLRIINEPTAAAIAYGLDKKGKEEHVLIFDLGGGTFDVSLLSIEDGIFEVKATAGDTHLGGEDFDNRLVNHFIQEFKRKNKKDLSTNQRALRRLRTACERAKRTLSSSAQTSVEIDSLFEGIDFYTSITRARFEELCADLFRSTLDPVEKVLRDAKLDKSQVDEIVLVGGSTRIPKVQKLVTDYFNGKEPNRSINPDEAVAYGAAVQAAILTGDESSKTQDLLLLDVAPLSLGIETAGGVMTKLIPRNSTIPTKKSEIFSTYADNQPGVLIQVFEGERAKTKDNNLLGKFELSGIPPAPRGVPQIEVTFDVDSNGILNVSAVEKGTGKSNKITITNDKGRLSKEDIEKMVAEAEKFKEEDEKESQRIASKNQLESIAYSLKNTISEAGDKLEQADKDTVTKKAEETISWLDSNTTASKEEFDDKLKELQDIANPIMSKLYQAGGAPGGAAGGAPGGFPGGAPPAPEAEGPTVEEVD
Ydj1 (yeast class A J-domain protein), sequence (P25491 whole entry): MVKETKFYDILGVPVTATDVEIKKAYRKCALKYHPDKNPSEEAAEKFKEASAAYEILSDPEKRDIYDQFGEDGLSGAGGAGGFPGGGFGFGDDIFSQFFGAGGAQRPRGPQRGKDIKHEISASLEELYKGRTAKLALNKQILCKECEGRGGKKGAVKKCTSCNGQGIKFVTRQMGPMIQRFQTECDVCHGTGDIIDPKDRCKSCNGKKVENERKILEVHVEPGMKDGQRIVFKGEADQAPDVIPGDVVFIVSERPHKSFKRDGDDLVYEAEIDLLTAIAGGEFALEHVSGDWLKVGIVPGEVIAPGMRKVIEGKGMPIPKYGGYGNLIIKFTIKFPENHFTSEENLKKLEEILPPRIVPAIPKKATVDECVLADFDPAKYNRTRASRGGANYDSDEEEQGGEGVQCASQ

Substance	prevention of aggregation: normalised FRET of urea-pre-unfolded MlucV diluted into increasing Ssa1 (150% without chaperone) (% of the FRET of native MlucV)	prevention of aggregation: normalised FRET of urea-pre-unfolded MlucV diluted into increasing Ydj1 (150% without Ydj1; native MlucV = 100%) (% of the FRET of native MlucV)
Ssa1 (yeast cytosolic Hsp70) (from UniProt P10591 1-642) (natural protein)	145	–
Ydj1 (yeast class A J-domain protein) (from UniProt P25491 1-409) (natural protein)	–	105
